± gives the half width of the 95% confidence interval.

A short description of series [1]: folding stability dG unfold from chymotrypsin proteolysis; higher = more stable. The procedure, abridged:
(§1)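 How resistant each design was to proteolysis was captured as K50, inferred by Bayesian fitting of sequencing counts. Unfolding free energy was then derived relative to a sequence-predicted unfolded-state K50 and a shared folded-state K50, per protease or combined. Digestion used trypsin and chymotrypsin at 11 threefold-diluted concentrations plus a no-protease condition, on mini-proteins under 80 residues without cysteine in a PA-tagged cDNA display construct. Designs were kept only when AlphaFold2 dimer inter-PAE was above 15.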

Series [2] is described as follows: folding stability dG unfold from trypsin proteolysis; higher = more stable. The procedure, abridged: as §1
Series [3] can be described thus: folding stability dG unfold (combined trypsin and chymotrypsin); higher = more stable. The procedure, abridged:
as §1

For “SKIKPGDVVTIMFPFPPGDPDQIREWAYWIARKLGPDVKVKSVEYNPNDPRYVQIEVRVPGGKITIHIMWSA [r9_1079_TrROS]”, the entries for the “folding stability dG unfold” value in series [1], in series [2] and in series [3] were 4.25 ± 0.076 kcal/mol, 2.7 ± 0.06 kcal/mol and 3.7 ± 0.12 kcal/mol, respectively.
On to “SKIRIEWPDETQEIKIPKDASVAIDPGNGHIAIHGPDGEALGFPLGPNWKIEPDDDEIEITIPPPKPEDPSA [r9_653_TrROS]”, for which the “folding stability dG unfold” value was 0.141 ± 0.056 kcal/mol in series [1], -0.118 ± 0.15 kcal/mol in series [2] and 0.158 ± 0.2 kcal/mol in series [3].
The matching figures for “SKKIKLSEEMKEAIKEAVKKAKPGEKVEITIKLKDGSIIKIEIYPDGTIKISVFDKNGKKIKEFEIKIKPSA [r9_132_TrROS_Hall]”: 2.59 ± 0.12 kcal/mol, 1.43 ± 0.075 kcal/mol and 1.81 ± 0.44 kcal/mol.
With “SKKKKIKKITLTFTTSDGSTITIEIDADQTVTITLPDGSTITITFDKDTGILTITVTNKDGSKQEFKIELSA [r9_99_TrROS_Hall]”, the “folding stability dG unfold” value stood at 3.08 ± 0.051 kcal/mol in series [1], 1.82 ± 0.075 kcal/mol in series [2] and 2.6 ± 0.11 kcal/mol in series [3].
As to “SKKPDQPPKTVPIEIWVPLPPGQTPEWREMAEEFAEIFADELQQEGFKNVTVEVEPNKDGWVHIDAEVQVSA [r9_865_TrROS]”, the “folding stability dG unfold” value in series [1] was -0.283 ± 0.21 kcal/mol; in series [2] it was 0.821 ± 0.15 kcal/mol; in series [3], 0.322 ± 0.26 kcal/mol.
As to “SKKPDYVILIEIEVEKNENGEKTIKKKIIIYDKNGKKKLIAEEEITIEVNGIKIKIKIKIFPKGASLEELSA [r9_1113_TrROS_Hall]”, the “folding stability dG unfold” value in series [1] amounted to 2.23 ± 0.16 kcal/mol; in series [2] it was 3.51 ± 0.26 kcal/mol; in series [3] it was 2.87 ± 0.2 kcal/mol.
For the sequence “SKKPKIKIEIEIVEITEVKYDKKTNKITVKVKVKIKIEVEVNGKKKKIEIEIPKNMTLEEILKKLKELLKSA [r9_656_TrROS_Hall]”, the entries for the “folding stability dG unfold” value in series [1], in series [2] and in series [3] were 1.99 ± 0.12 kcal/mol, 2.15 ± 0.44 kcal/mol and 2.28 ± 0.58 kcal/mol, respectively.
Consider “SKKTITITIEDKETGLKVEITINEDGTITIKVYDKDGKLVAEVKAKIKLVKDKDGKIRLVIEEIEIKVKPSA [r9_434_TrROS_Hall]”, for which the “folding stability dG unfold” value in series [1] came to 3.04 ± 0.13 kcal/mol; in series [2] it was 3.87 ± 0.46 kcal/mol; in series [3], 3.61 ± 0.44 kcal/mol.
“SKKTIYIVNEDGSIIRFDEETGEITIFNKETGKEVKIKVEKKGNELIITIEVNGKKYKIKIPKGDIIPIKSA [r9_239_TrROS_Hall]”: the “folding stability dG unfold” value turned out to be 4.16 ± 0.07 kcal/mol in series [1], 2.32 ± 0.062 kcal/mol in series [2] and 3.68 ± 0.24 kcal/mol in series [3].
For “SKKVKIVIKIKVEVTNKDGKKKTFEFTLVIELSEEEIEKLKKKIEDLLNELKKKYPNIKKVEITEIKILPSA [r9_436_TrROS_Hall]” the same measures were 4.4 ± 0.32 kcal/mol, 3.59 ± 0.26 kcal/mol and 4.31 ± 0.62 kcal/mol.
As to “SKKVTLPIYFPETGEVVTIDLDELAKALGVDPDKLTLTVVSSGKGRVYRIEVFKDGIRIEEIGDVPPELLSA [r9_819_TrMRF]”, the “folding stability dG unfold” value amounted to 2.848 ± 0.017 kcal/mol in series [1], 2.2 ± 0.03 kcal/mol in series [2] and 2.63 ± 0.05 kcal/mol in series [3].
“SKMYLVKIKIEVYKDGKLVKEEEIEIEVSEEEAKKLAEKLKEELPGYKVKIEIEVREIEPEDEELLKALESA [r9_782_TrROS_Hall]”: the “folding stability dG unfold” value in series [1] turned out to be 4.12 ± 0.054 kcal/mol; in series [2], 2.69 ± 0.15 kcal/mol; in series [3] it was 3.61 ± 0.12 kcal/mol.
As for “SKPGKTIMIMITMDNIKEFLEELPLEPNMEVEIMFMNPNGKMRTLTIRNGEIDSIEPFPNFPDYWMIMIKSA [r9_849_TrROS]”, the “folding stability dG unfold” value amounted to 2.92 ± 0.07 kcal/mol in series [1], 2.69 ± 0.071 kcal/mol in series [2] and 2.78 ± 0.24 kcal/mol in series [3].
Regarding “SKPVLVKVKIVTKNKNGKKIEKELVIEMSEEDLEKLLEELLNDPNLKDVEKIEIEVVDAETGEVYTFTFPSA [r9_97_TrROS_Hall]”, the “folding stability dG unfold” value in series [1] worked out at 3.15 ± 0.062 kcal/mol; in series [2], 2.01 ± 0.19 kcal/mol; in series [3], 2.89 ± 0.14 kcal/mol.
With “SKTIVIELENIEDMTKEELKNLIKELAEKGETVKVTILNKDGKEVKTIEIKPGEIVPFPKGSKVLIKIEKSA [r9_264_TrROS_Hall]”, the “folding stability dG unfold” value in series [1] is 1.49 ± 0.036 kcal/mol; in series [2] it was 1.42 ± 0.062 kcal/mol; in series [3] it was 1.37 ± 0.15 kcal/mol.
For the sequence “SKTYLVKVTIEYGGKTIEIEVEVETLEEALAAVRAALPPEERAQLPPDAKVTVEVYELPEVDEETGELLESA [r9_111_TrROS_Hall]”, the entries for the “folding stability dG unfold” value in series [1], in series [2] and in series [3] were 4.2 ± 0.048 kcal/mol, 2.83 ± 0.07 kcal/mol and 3.84 ± 0.059 kcal/mol, respectively.
Turning to “SKTYTAEEIKKLFPNIKKVEVKDGKVRLTVENENGEKFEIEITFEAPKPEPEVEEEVEKKKEEELSEEDLSA [r9_427_TrROS_Hall]”, the “folding stability dG unfold” value was determined as 2.62 ± 0.14 kcal/mol in series [1], 1.28 ± 0.061 kcal/mol in series [2] and 1.65 ± 0.31 kcal/mol in series [3].
The matching figures for “SKWTIDIDITYYPEYGVITVTIRYPNSWEQARFDVRSFIHEAGMPIKLEDIEIEQVEGWYEITYTIRIPPSA [r9_164_TrROS]”: 3.88 ± 0.13 kcal/mol, 3.49 ± 0.19 kcal/mol and 3.78 ± 0.39 kcal/mol.
Take “SLDPGEPVYRIKVKIEMWNPNGKPIAEFTIPIRTLEEAKEAIKEMAREIAEKMGHPDMPIRIKDIEIEPYSA [r9_376_TrROS]”: the “folding stability dG unfold” value in series [1] amounted to 2.21 ± 0.045 kcal/mol; in series [2] it was 2.29 ± 0.033 kcal/mol; in series [3], 2.27 ± 0.099 kcal/mol.
For “SLEEKIKEAIENSPPNSEVIVPLPDDRTVKITVTPETVTGDGRRRLRIKVTITIYDPSGTKLGEKVLEIPLS [r1_386_JUSTAS]” the same measures were 4.12 ± 0.17 kcal/mol, 2.66 ± 0.052 kcal/mol and 3.69 ± 0.16 kcal/mol.
The matching figures for “SLEVAAELGLSVSSLEELETDPEKGTRLLRLTAPTPGATVEVLVEVTTRKDSKGETVPEVRVLAVRTVAPSA [r9_613_JUSTAS]”: 1.33 ± 0.077 kcal/mol, 1.15 ± 0.03 kcal/mol and 1.26 ± 0.07 kcal/mol.
Regarding “SLGPNEDAILEEEAIIDIDPEAFRKAFGFDVPEDTKVLIITRRRVPANGDIETDPEIYIYDPKTKKFYPISA [r9_349_TrMRF]”, the figures for the “folding stability dG unfold” value in series [1], in series [2] and in series [3] were 2.34 ± 0.067 kcal/mol, 2.05 ± 0.046 kcal/mol and 2.29 ± 0.16 kcal/mol, respectively.
The matching figures for “SLIPIRPLATSPSGDLLIEVPAEEDLVEEIKKYLKEKFPGYTPVEVKPVESPPLYLVLFSHPSGKKVWLGSA [r9_1164_JUSTAS]”: 1.35 ± 0.082 kcal/mol, 0.967 ± 0.03 kcal/mol and 1.24 ± 0.07 kcal/mol.
With “SLLELAKQANGPLKINVKSEWVTLPDGTPVEIINVEVSQDPNSDVATVTKTVVDPDKDTSSTSTSTIPLGSS [r1_448_JUSTAS]”, the “folding stability dG unfold” value in series [1] is 0.316 ± 0.077 kcal/mol; in series [2] it was -0.95 ± 0.17 kcal/mol; in series [3] it was -0.0266 ± 0.14 kcal/mol.
Take “SLPPSLTYTLKLSHPDGSTVTATVFPGGSLRVTVYAPGGVKVAESEYPVDDLEALMKALGIKEVLSMELASA [r9_1107_JUSTAS]”: the “folding stability dG unfold” value was 2.85 ± 0.071 kcal/mol in series [1], 1.93 ± 0.082 kcal/mol in series [2] and 2.67 ± 0.13 kcal/mol in series [3].
The matching figures for “SMEEAIEEAIKKNEEAIAAGGGPVKVELEVPGYRIDLTFSPNGLKITNIEEKNSPDGIPSVKSTSDVPPPSA [r9_308_JUSTAS]”: -0.503 ± 0.11 kcal/mol, 0.845 ± 0.085 kcal/mol and 0.284 ± 0.14 kcal/mol.
Take “SMEIKIEITYDKDTNYLVIKVTIKLKTKTVDKKTKKVTEKEEEITLTLVIKLKPLKPGQKLKLEIKLFPESA [r9_1058_TrROS_Hall]”: the “folding stability dG unfold” value in series [1] turned out to be 4.93 ± 0.33 kcal/mol; in series [2] it was 3.24 ± 0.22 kcal/mol; in series [3], 4.4 ± 0.44 kcal/mol.
Turning to “SMEILEMDIEEILSLLPEDIHPDVPYTLTVPGLEIRILDVAPVREEEGGPRPTTVIEVFLPDGPVVFPLESA [r9_279_TrMRF]”, the “folding stability dG unfold” value in series [1] is 1.26 ± 0.069 kcal/mol; in series [2], 0.872 ± 0.042 kcal/mol; in series [3], 1.11 ± 0.12 kcal/mol.
As to “SMEPGERYRITATRKDGSRVEVEAIPGGVLRARVYLPNGELVGEAEFPVDRPVELLEALGLDELVSVEPESA [r9_1107_TrMRF]”, the “folding stability dG unfold” value in series [1] is 2.42 ± 0.043 kcal/mol; in series [2] it was 2.17 ± 0.051 kcal/mol; in series [3], 2.32 ± 0.086 kcal/mol.
With “SMFRIRFKDGSEFDIELNEDGELTITNKNGKKITLTFKTKEEALKAAEELKKKYPNMKVEIEEVSPEELKSA [r9_1206_TrROS_Hall]”, the “folding stability dG unfold” value stood at 3.504 ± 0.016 kcal/mol in series [1], 2.6 ± 0.059 kcal/mol in series [2] and 3.13 ± 0.12 kcal/mol in series [3].
Turning to “SMFRPFPLPDGRPAYDFIIPGLELASSFFPETGRPVLVLRPGGRLGAAPLFAADLDVLFSRPPLVAVEPDSA [r9_205_TrMRF]”, the “folding stability dG unfold” value in series [1] was 1.37 ± 0.17 kcal/mol; in series [2], 0.634 ± 0.11 kcal/mol; in series [3], 0.999 ± 0.14 kcal/mol.
With “SMGSITITLPATPEELRELLREKGISPELAPSWEEVKEALKKAFPKNVTVTINPKSPVSEEAAKAAREGSSA [r9_74_JUSTAS]”, the “folding stability dG unfold” value in series [1] was determined as 1.45 ± 0.017 kcal/mol; in series [2], 0.462 ± 0.038 kcal/mol; in series [3], 1.13 ± 0.064 kcal/mol.
“SMGSTTVTVELEFEVEDPSVFPPDTTVDVPEEVIEKLRAEGYTVTEITTTVEPTPSGRVRVRVTMTVRVDSA [r9_465_JUSTAS]”: the “folding stability dG unfold” value in series [1] was 2.77 ± 0.049 kcal/mol; in series [2] it was 2.95 ± 0.05 kcal/mol; in series [3], 2.93 ± 0.095 kcal/mol.
Consider “SMIEELSDEEKVALAKELAEEIKKAREGGKPEEIPELIKRLKEVLEAASPPVQEEVLALIKEIKIPPKELSA [r9_182_JUSTAS]”, for which the “folding stability dG unfold” value in series [1] was 1.7 ± 0.04 kcal/mol; in series [2], 2.82 ± 0.065 kcal/mol; in series [3], 2.23 ± 0.076 kcal/mol.
The matching figures for “SMIKPGEKIKKIKLKLENGEEVEATLVKNEDGSLVLFIKVDGEVYVFTFNPDGEIKIEKVSKEEAEKLLKSA [r9_1144_TrROS_Hall]”: 3.79 ± 0.046 kcal/mol, 2.05 ± 0.097 kcal/mol and 3.4 ± 0.15 kcal/mol.

(Values after the supplement of paper PMC12764529.)
